Reference: publication doi:10.1101/2020.02.14.949818 (bioRxiv, 2020)

Key:
SEC-SAXS = molecular target: the molecule itself; assay: SEC-SAXS
crystal structure = molecular target: the molecule itself; assay: crystal structure

Row | Protein | stoichiometry N (SEC-SAXS) | binding result (crystal structure)
1 | truncated human FUT8 (HsFUT8_(105-575)) (domain or fragment) RNGLGKDHEILRRRIENGAKELWFFLQSELKKLKNLEGNELQRHADEFLLDLGHHERSIMTDLYYLSQTDGAGDWREKEAKDLTELVQRRITYLQNPKDCSKAKKLVCNINKGCGYGCQLHHVVYCFMIAYGTQRTLILESQNWRYATGGWETVFRPVSETCTDRSGISTGHWSGEVKDKNVQVVELPIVDSLHPRPPYLPLAVPEDLADRLVRVHGDPAVWWVSQFVKYLIRPQPWLEKEIEEATKKLGFKHPVIGVHVRRTDKVGTEAAFHPIEEYMVHVEEHFQLLARRMQVDKKRVYLATDDPSLLKEAKTKYPNYEFISDNSISWSAGLHNRYTENSLRGVILDIHFLSQADFLVCTFSSQVCRVAYEIMQTLHPDASANFHSLDDIYYFGGQNAHNQIAIYAHQPRTADEIPMEPGDIIGVAGNHWDGYSKGVNRKLGRTGLYPSYKVREKIETVKYPTYPEAEK | 2 | 
2 | mouse FUT8 (MmFUT8_(68-575)) (domain or fragment) RIPEGPIDQGTATGRVRVLEEQLVKAKEQIENYKKQARNGLGKDHEILRRRIENGAKELWFFLQSELKKLKHLEGNELQRHADEILLDLGHHERSIMTDLYYLSQTDGAGDWREKEAKDLTELVQRRITYLQNPKDCSKARKLVCNINKGCGYGCQLHHVVYCFMIAYGTQRTLILESQNWRYATGGWETVFRPVSETCTDRSGLSTGHWSGEVNDKNIQVVELPIVDSLHPRPPYLPLAVPEDLADRLLRVHGDPAVWWVSQFVKYLIRPQPWLEKEIEEATKKLGFKHPVIGVHVRRTDKVGTEAAFHPIEEYMVHVEEHFQLLARRMQVDKKRVYLATDDPTLLKEAKTKYSNYEFISDNSISWSAGLHNRYTENSLRGVILDIHFLSQADFLVCTFSSQVCRVAYEIMQTLHPDASANFHSLDDIYYFGGQNAHNQIAVYPHKPRTEEEIPMEPGDIIGVAGNHWDGYSKGINRKLGKTGLYPSYKVREKIETVKYPTYPEAEK |  | binds
